B1: KLHL11 BTB-BACK (residues 67-340), unlabeled (domain or fragment, human, UniProt Q9NVR0 67-340, looked up)
chain: EAEDFECSSHCSELSWRQNEQRRQGLFCDITLCFGGAGGREFRAHRSVLAAATEYFTPLLSGQFSESRSGRVEMRKWSSEPGPEPDTVEAVIEYMYTGRIRVSTGSVHEVLELADRFLLIRLKEFCGEFLKKKLHLSNCVAIHSLAHMYTLSQLALKAADMIRRNFHKVIQDEEFYTLPFHLIRDWLSDLEITVDSEEVLFETVLKWVQRNAEERERYFEELFKLLRLSQMKPTYLTRHVKPERLVANNEVCVKLVADAVERHALRAENIQSGT
notes: human KLHL11 BTB and BACK domains, residues 67-340, in vector pNIC28-Bsa4; source: E. coli BL21(DE3)-pRARE2, purified (nickel sepharose, TEV cleavage, SEC); not shown: His6, N-terminal, cleaved
B2: CoraFluor-1-labeled KLHL11_(BTB-BACK) (domain or fragment, human, UniProt Q9NVR0 67-340, looked up)
chain: B1 chain
modifications: CoraFluor-1 by direct acylation with CoraFluor-1-Pfp (sites not given)
notes: human KLHL11, Uniprot Q9NVR0, residues 67–340, vector pNIC28-Bsa4; source: E. coli BL21(DE3)-pRARE2, purified (nickel sepharose, TEV cleavage, SEC), labeled with CoraFluor-1-Pfp; not shown: His6, N-terminal, cleaved
B3: CoraFluor-1-labeled KLHL11 BTB-BACK (domain or fragment, human, UniProt Q9NVR0 67-340, looked up)
chain: B1 chain
modifications: CoraFluor-1 by direct acylation with CoraFluor-1-Pfp (sites not given)
notes: human KLHL11 BTB and BACK domains, residues 67-340, in vector pNIC28-Bsa4; TR-FRET donor protein; source: E. coli BL21(DE3)-pRARE2, purified (nickel sepharose, TEV cleavage, SEC), labeled with CoraFluor-1-Pfp; not shown: His6, N-terminal, cleaved
B4: CUL3_(NTDΔ22) (CUL3 residues 23–388, I342R L346D) (domain or fragment, human, UniProt Q13618 23-388, looked up)
chain: MTMDEKYVNSIWDLLKNAIQEIQRKNNSGLSFEELYRNAYTMVLHKHGEKLYTGLREVVTEHLINKVREDVLNSLNNNFLQTLNQAWNDHQTAMVMIRDILMYMDRVYVQQNNVENVYNLGLIIFRDQVVRYGCIRDHLRQTLLDMIARERKGEVVDRGAIRNACQMLMILGLEGRSVYEEDFEAPFLEMSAEFFQMESQKFLAENSASVYIKKVEARINEEIERVMHCLDKSTEEPIVKVVERELISKHMKTIVEMENSGLVHMLKNGKTEDLGCMYKLFSRVPNGLKTMCECMSSYLREQGKALVSEEGEGKNPVDYRQGLDDLKSRFDRFLLESFNNDRLFKQTIAGDFEYFLNLNSRSPEYL
notes: human CUL3, Uniprot Q13618, residues 23–388, vector pNIC-CTHF, with stabilising mutations I342R and L346D; also called CUL3_(NTDΔN22); source: E. coli BL21(DE3)-pRARE2, purified (nickel sepharose, TEV cleavage, SEC); not shown: His6, C-terminal, cleaved; FLAG, C-terminal, cleaved
B5: Biotinylated KEAP1 BTB-3-box (residues 48-213) (domain or fragment, human, UniProt Q14145 48-213, looked up)
chain: GNRTFSYTLEDHTKQAFGIMNELRLSQQLCDVTLQVKYQDAPAAQFMAHKVVLASSSPVFKAMFTNGLREQGMEVVSIEGIHPKVMERLIEFAYTASISMGEKCVLHVMNGAVMYQIDSVVRACSDFLVQQLDPSNAIGIANFAEQIGCVELHQRAREYIYMHFGE
modifications: biotin on the avi tag

How the values were obtained:
Settings in all cases: both partners purified
AF488-labeled CUL3NTD [1] = molecular target: T1, AF488-labeled CUL3NTD (human, UniProt Q13618 1-388, I342R | L346D, AF488 by direct acylation with AF488-Tfp (sites not given)); assay: FRET or BRET; TR-FRET protein displacement assay: CoraFluor-1-labeled KLHL11 (3 nM at 1.5x) and AF488-labeled CUL3NTD (45 nM at 1.5x); unlabeled protein titrated 1:3, 12 points, cmax 25 uM; 2 h at room temperature; 25 mM HEPES, 150 mM NaCl, 1 mM DTT, 0.5 mg/mL BSA, 0.005% TWEEN-20, pH 7.5; KD from IC50 by Cheng-Prusoff
T1 construct: human CUL3 N-terminal domain, residues 1-388, in vector pNIC-CTHF, with the stabilising mutations I342R and L346D; Fluorescent tracer of the TR-FRET assays; also called AF488-CUL3NTD; source: E. coli BL21(DE3)-pRARE2, purified (nickel sepharose, TEV cleavage, SEC), labeled with AF488-Tfp; not shown: His6, C-terminal, cleaved; FLAG, C-terminal, cleaved

AF488-labeled CUL3NTD [2] = molecular target: T2, AF488-labeled CUL3NTD (human, UniProt Q13618 1-388, I342R | L346D, AF488 by direct acylation with AF488-Tfp (sites not given)); assay: FRET or BRET; TR-FRET dissociation: pre-equilibrated 20 nM CoraFluor-1-KEAP1 + 300 nM AF488-CUL3NTD, or 2 nM CoraFluor-1-KLHL11 + 45 nM AF488-CUL3NTD; 25 μM unlabeled KLHL11 added, read for 30 min; one-phase decay
T2 construct: human CUL3, Uniprot Q13618, residues 1–388, vector pNIC-CTHF, with stabilising mutations I342R and L346D; also called AF488-CUL3NTD; source: E. coli BL21(DE3)-pRARE2, purified (nickel sepharose, TEV cleavage, SEC), labeled with AF488-Tfp; not shown: His6, C-terminal, cleaved; FLAG, C-terminal, cleaved

[3] = molecular target: B4; assay: FRET or BRET; TR-FRET protein displacement assay: CoraFluor-1-labeled KLHL11_(BTB-BACK) + AF488-labeled CUL3NTD, unlabeled protein titrated (cmax 25 μM); assay buffer pH 7.5, 2 h, room temperature; KD from IC50 by Cheng-Prusoff
AF488-labeled CUL3NTD [4] = molecular target: T2, AF488-labeled CUL3NTD; assay: FRET or BRET; TR-FRET saturation binding: AF488-labeled CUL3NTD titrated (cmax 1000 nM) onto CoraFluor-1-labeled KEAP1 or KLHL11; 25 mM HEPES, 150 mM NaCl, 1 mM DTT, 0.5 mg/mL BSA, 0.005% TWEEN-20, pH 7.5; 2 h, room temperature; One Site – Total Binding model
[5] = molecular target: T3, CUL3 N-terminal domain (CUL3NTD, residues 1-388), unlabeled (human, UniProt Q13618 1-388, I342R | L346D); assay: FRET or BRET; TR-FRET protein displacement assay: CoraFluor-1-labeled KLHL11 (3 nM at 1.5x) and AF488-labeled CUL3NTD (45 nM at 1.5x); unlabeled protein titrated 1:3, 12 points, cmax 25 uM; 2 h at room temperature; 25 mM HEPES, 150 mM NaCl, 1 mM DTT, 0.5 mg/mL BSA, 0.005% TWEEN-20, pH 7.5; KD from IC50 by Cheng-Prusoff
T3 construct: human CUL3 N-terminal domain, residues 1-388, in vector pNIC-CTHF, with the stabilising mutations I342R and L346D; source: E. coli BL21(DE3)-pRARE2, purified (nickel sepharose, TEV cleavage, SEC); not shown: His6, C-terminal, cleaved; FLAG, C-terminal, cleaved

[6] = molecular target: CoraFluor-1-labeled KEAP1FL (full-length, untagged KEAP1, residues 1–624) (human, UniProt Q14145 1-624, CoraFluor-1 by direct acylation with CoraFluor-1-Pfp (sites not given)); assay: FRET or BRET; TR-FRET protein displacement assay: CoraFluor-1-labeled KEAP1FL + AF488-labeled CUL3NTD, unlabeled protein titrated (cmax 25 μM); assay buffer pH 7.5, 2 h, room temperature; KD from IC50 by Cheng-Prusoff
Chain of CoraFluor-1-labeled KEAP1FL (full-length, untagged KEAP1, residues 1–624) (Q14145 whole entry, the tested form may be a part): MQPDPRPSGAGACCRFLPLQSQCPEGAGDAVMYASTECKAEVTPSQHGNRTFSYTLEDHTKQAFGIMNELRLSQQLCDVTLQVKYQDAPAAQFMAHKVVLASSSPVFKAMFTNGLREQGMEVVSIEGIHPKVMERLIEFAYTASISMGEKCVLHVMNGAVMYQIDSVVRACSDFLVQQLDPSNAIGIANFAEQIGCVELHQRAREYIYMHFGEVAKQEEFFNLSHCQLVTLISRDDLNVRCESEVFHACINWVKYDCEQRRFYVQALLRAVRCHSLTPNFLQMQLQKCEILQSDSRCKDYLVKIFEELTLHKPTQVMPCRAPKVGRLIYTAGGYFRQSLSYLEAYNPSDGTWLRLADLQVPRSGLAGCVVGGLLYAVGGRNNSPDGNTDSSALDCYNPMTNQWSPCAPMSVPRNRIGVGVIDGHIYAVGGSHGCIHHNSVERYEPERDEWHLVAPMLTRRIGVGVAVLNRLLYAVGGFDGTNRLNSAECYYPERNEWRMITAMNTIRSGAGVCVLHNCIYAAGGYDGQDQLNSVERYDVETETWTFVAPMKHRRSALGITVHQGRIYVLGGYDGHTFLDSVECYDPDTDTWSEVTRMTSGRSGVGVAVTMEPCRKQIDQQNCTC

[7] = molecular target: B2; assay: FRET or BRET; TR-FRET protein displacement assay: CoraFluor-1-labeled KLHL11_(BTB-BACK) + AF488-labeled CUL3NTD, unlabeled protein titrated (cmax 25 μM); assay buffer pH 7.5, 2 h, room temperature; KD from IC50 by Cheng-Prusoff
[8] = molecular target: T3, CUL3 N-terminal domain (CUL3NTD, …); assay: BLI; Octet RED384; biotinylated KEAP1BTB-3-box immobilised on streptavidin tips; analyte in 50 mM HEPES, 300 mM NaCl, 0.5 mM TCEP, 10 mM DTT, 0.01% TWEEN-20; kinetic global fit, 1:1 model; apparent
[9] = molecular target: T3, CUL3 N-terminal domain (CUL3NTD, …); assay: as above; remark: listed apart in the source
[10] = molecular target: T4, full length CUL3-RBX1 complex (human | , UniProt Q13618 1-768; P62877 1-108); assay: as above
T4 sequence (Q13618 whole entry, chain 1 of 2, the tested form may be a part): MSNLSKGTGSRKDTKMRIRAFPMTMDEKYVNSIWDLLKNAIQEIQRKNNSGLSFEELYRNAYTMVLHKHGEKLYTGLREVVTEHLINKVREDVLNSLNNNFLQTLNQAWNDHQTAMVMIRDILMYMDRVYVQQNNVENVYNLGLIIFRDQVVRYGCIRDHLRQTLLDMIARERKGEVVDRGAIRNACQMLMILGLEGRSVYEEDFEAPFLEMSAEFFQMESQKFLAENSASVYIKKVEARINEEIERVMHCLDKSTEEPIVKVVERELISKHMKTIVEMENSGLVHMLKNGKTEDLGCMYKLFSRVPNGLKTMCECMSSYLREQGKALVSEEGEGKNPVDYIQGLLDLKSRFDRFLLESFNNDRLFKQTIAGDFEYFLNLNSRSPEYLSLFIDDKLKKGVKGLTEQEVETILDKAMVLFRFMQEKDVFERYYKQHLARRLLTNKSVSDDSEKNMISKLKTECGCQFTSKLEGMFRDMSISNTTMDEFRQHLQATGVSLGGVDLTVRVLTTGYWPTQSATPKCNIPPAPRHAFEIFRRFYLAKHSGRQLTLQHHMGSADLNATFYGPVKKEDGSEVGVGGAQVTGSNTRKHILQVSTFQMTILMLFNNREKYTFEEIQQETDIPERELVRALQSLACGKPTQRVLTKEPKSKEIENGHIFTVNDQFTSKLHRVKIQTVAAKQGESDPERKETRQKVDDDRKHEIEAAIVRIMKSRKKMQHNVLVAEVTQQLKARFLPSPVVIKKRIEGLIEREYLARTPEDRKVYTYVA
T4 sequence (P62877 whole entry, chain 2 of 2, the tested form may be a part): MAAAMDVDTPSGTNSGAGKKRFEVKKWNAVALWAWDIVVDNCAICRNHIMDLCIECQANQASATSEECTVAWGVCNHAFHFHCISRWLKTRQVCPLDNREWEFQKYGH

[11] = molecular target: T3, CUL3 N-terminal domain (CUL3NTD, …); assay: BLI; Octet RED384; biotinylated KEAP1BTB-3-box immobilised on streptavidin tips; analyte in 50 mM HEPES, 300 mM NaCl, 0.5 mM TCEP, 10 mM DTT, 0.01% TWEEN-20; steady-state equilibrium analysis, 1:1 model; apparent
[12] = molecular target: T4, full length CUL3-RBX1 complex; assay: as above

For B1, which Kd (AF488-labeled CUL3NTD [1]) is on record?
Its Kd is 14 nM.

How did the koff (AF488-labeled CUL3NTD [2]) turn out when B2 was run?
Its koff is 0.00381 s⁻¹.

What about the Kd [3] of the same binder?
Its Kd is 1840 nM.

And the Kd (AF488-labeled CUL3NTD [4])?
Its Kd is 20 nM.

For B3, which Kd [5] is on record?
Its Kd is 8 nM.

For B4, which Kd [6] is on record?
The Kd was 13800 nM.

What about the “fold decrease of affinity against CUL3NTD” value [7] of the same binder?
Its value is greater than 200 fold.

Which results are given for B5?
koff [8]: 0.189 s⁻¹; kon [8]: 36600 M⁻¹ s⁻¹; Kd [9]: 5200 nM; Kd [10]: 5600 nM; koff [10]: 0.187 s⁻¹; kon [10]: 33200 M⁻¹ s⁻¹; Kd [11]: 2900 nM; Kd [12]: 4400 nM
